Patent US20180339043A1 (JANUX THERAPEUTICS, published 2018)
Primed or numbered codes have the meaning given here. Ends that are not written are not given here. Biotin′ = not defined here

T1: Peptide 15 with C-terminal biotin (Example 13) (not fully specified; cysteine pairing not given here)
T1 peptide: GGPCNQVECHHQFT-{Biotin′}


Assays:
[1] = molecular target: T2, anti-mouse CTLA-4 antibody (clone 9D9); experiment: competition ELISA: 0.3 nM anti-CTLA Ab / 30 min with peptide, then on mouse CTLA-4 (Example 11); competitor mouse CTLA-4
T2 construct: also called 9D9 antibody; anti-CTLA4
Protocol: (§1) Following this incubation the peptide-antibody complexes were transferred to mouse CTLA-4 coated and blocked ELISA plates and incubated further. Following a brief binding period the plates were washed and target bound antibody was detected by either anti-mouse Fc or anti-mouse kappa chain HRP conjugated antibodies using standard TMB-based chromogenic ELISA procedures. The effects of competition were determined by standard IC50 analysis.

[2] = molecular target: T3, PD-L1 antibody; experiment: dissociation ELISA: PD-L1 antibody dilution series on immobilised biotinylated peptide, incubation at pH 5.4
T3 construct: also called anti-PD-L1

[3] = molecular target: T3, PD-L1 antibody; experiment: dissociation ELISA: PD-L1 antibody dilution series on immobilised biotinylated peptide
[4] = molecular target: T3, PD-L1 antibody; experiment: dissociation ELISA: PD-L1 antibody dilution series on immobilised biotinylated peptide, incubation at pH 7.2
[5] = molecular target: T2, anti-mouse CTLA-4 antibody (clone 9D9); experiment: competition ELISA: 0.3 nM anti-CTLA Ab / 30 min with peptide, then on mouse CTLA-4 (Example 11)
Protocol: as §1

[6] = molecular target: T3, PD-L1 antibody; experiment: dissociation ELISA: PD-L1 antibody dilution series on immobilised biotinylated peptide, incubation at pH 6.0
[7] = molecular target: T1, Peptide 15 with C-terminal biotin …; experiment: ELISA, biotinylated Peptide 15 on Neutravidin, Fab titrated at pH 7.4 (Example 13)
Protocol: After washing in PBS-T, mCTLA-4 Fab diluted in either pH 7.4 Binding Buffer (50 mM sodium phosphate+150 mM NaCl+0.5% BSA+0.05% Tween-20, pH 7.4) or pH 6.0 Binding Buffer (50 mM sodium phosphate+150 mM NaCl+0.5% BSA+0.05% Tween-20, pH 6.0) was captured for 1 hour. After capture, wells were washed with either pH 7.4 Binding Buffer or pH 6.0 Binding Buffer, followed by additional 5-minute incubation with the appropriate pH Binding Buffer. Detection was performed with HRP conjugated goat anti-mouse IgG H+L (Southern Biotech.) for 1 hour at 1/2000 dilution in PBS-T+0.5% BSA followed by TMB (3-minute development) with acid stop. […] Data is expressed as mean+SD. All ELISA steps were performed at room temperature.

Binder | binding result [1] | EC50 [2] [nM] | pH 5.4: pH 7.2 EC 50 ratio [3] | pH 6.0: pH 7.2 EC 50 ratio [3] | EC50 [4] [nM] | binding result [5] | EC50 [6] [nM] | EC50 (read off the curve) [7] [nM]
GGHCVDMVDFYQQTCQ (cysteine pairing not given here; also: biotinylated, Chemically synthesized biotinylated peptide; also called 23 (Control)) [Peptide 23] | – | 3.9 | 12.9 | 4.3 | 0.3 | no binding (tested: 50 uM) | 1.3 | –
GGCHNKSGLFYHYC (cysteine pairing not given here; also: biotinylated, chemically synthesized biotinylated peptide) [Peptide 24] | – | 1.3 | 6.6 | 2.8 | 0.2 | – | 0.56 | –
GGLCSTFYEPQVDICY (cysteine pairing not given here; also: biotinylated, chemically synthesized biotinylated peptide) [Peptide 29] | – | 1.5 | 6.5 | 2.1 | 0.23 | – | 0.49 | –
GGMCHELFYSNLNWCQ (cysteine pairing not given here; also: biotinylated, chemically synthesized biotinylated peptide) [Peptide 22] | – | 0.35 | 7.8 | 1.5 | 0.045 | – | 0.07 | –

The next lines start with the values.

binding result [1] | EC50 [2] [nM] | pH 5.4: pH 7.2 EC 50 ratio [3] | pH 6.0: pH 7.2 EC 50 ratio [3] | EC50 [4] [nM] | binding result [5] | EC50 [6] [nM] | EC50 (read off the curve) [7] [nM] | Binder
binds | – | – | – | – | – | – | – | GGCPSLHPQWIHVC [Peptide 16]
– | – | – | – | – | – | – | ~200 | anti-mouse CTLA-4 (clone 9D9) Fab fragment (Fab, V domains shown, Monovalent Fab fragment of 9D9; also called mCTLA-4 Fab; a-mCTLA-4 Fab) VH: EAKLQESGPVLVKPGASVKMSCKASGYTFTDYYMNWVKQSHGKSLEWIGVINPYNGDTSYNQKFKGKATLTVDKSSSTAYMELNSLTSEDSAVYYCARYYGSWFAYWGQGTLITVST VL: DIVMTQTTLSLPVSLGDQASISCRSSQSIVHSNGNTYLEWYLQKPGQSPKLLIYKVSNRFSGVPDRFSGSGSGTDFTLKISRVEAEDLGVYYCFQGSHVPYTFGGGTKLEIKR
binds | – | – | – | – | – | – | – | GGCQIHDPHTWHLC [Peptide 19]
– | 0.84 | 6.7 | 1.7 | 0.13 | – | 0.21 | – | QLFYPSTYHIID (also: biotinylated, chemically synthesized biotinylated peptide) [Peptide 20]
